Like-named read-outs stand apart in the source and are kept apart here.
T1: CLuc-EXO70H1 (A. thaliana, UniProt Q8VY27 1-636)
T1 sequence: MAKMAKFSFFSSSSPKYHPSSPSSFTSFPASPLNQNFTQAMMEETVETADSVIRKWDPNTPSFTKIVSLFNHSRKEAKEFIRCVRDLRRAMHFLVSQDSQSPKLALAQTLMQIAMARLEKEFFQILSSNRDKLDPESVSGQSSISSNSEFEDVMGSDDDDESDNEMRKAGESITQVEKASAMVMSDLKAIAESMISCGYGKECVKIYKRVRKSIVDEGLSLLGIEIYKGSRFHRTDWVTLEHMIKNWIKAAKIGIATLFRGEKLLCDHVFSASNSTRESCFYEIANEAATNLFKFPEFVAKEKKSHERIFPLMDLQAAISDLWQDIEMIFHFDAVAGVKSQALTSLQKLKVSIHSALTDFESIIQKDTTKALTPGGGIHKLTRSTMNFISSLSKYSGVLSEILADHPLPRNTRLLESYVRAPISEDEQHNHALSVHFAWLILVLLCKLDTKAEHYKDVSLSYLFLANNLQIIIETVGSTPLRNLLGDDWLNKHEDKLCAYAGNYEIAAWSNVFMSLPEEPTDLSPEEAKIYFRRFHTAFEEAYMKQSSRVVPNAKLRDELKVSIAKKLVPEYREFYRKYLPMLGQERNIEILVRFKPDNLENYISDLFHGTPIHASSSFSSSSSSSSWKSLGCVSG

T2: CLuc-EXO70H4 (A. thaliana, UniProt Q9SF51 1-628)
T2 sequence: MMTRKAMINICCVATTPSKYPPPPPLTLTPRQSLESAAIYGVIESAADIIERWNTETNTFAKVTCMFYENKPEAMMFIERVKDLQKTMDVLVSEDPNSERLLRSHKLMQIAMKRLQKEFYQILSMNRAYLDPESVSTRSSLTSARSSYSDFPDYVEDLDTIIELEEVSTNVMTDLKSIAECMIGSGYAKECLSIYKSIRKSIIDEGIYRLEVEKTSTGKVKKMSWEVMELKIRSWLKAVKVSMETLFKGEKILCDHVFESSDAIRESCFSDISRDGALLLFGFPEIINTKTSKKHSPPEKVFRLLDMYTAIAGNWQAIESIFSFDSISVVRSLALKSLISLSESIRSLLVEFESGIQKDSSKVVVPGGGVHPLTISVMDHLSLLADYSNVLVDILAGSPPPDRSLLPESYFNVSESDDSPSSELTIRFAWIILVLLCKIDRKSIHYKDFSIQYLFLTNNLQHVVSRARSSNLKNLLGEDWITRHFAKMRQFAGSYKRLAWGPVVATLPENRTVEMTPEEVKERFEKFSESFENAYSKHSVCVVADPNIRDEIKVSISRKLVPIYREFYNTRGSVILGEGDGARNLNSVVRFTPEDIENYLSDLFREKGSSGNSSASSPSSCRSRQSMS

T3: CLuc-EXO70B2 (A. thaliana, UniProt Q9LMJ4 1-599)
T3 sequence: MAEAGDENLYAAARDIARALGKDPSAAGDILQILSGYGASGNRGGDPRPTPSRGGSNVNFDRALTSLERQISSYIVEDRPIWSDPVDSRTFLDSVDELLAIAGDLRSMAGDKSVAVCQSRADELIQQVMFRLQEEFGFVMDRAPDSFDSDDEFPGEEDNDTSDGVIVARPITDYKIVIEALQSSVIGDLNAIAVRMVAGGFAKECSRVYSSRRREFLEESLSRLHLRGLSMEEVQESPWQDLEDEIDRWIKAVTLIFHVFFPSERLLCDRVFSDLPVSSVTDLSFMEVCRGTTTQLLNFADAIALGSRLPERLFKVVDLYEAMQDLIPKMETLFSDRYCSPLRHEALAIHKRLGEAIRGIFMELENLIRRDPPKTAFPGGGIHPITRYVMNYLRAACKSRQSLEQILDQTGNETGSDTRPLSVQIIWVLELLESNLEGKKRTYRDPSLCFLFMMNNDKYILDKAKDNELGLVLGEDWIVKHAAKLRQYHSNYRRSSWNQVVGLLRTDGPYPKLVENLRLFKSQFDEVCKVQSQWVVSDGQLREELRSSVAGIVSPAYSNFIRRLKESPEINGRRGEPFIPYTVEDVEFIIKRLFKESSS

T4: CLuc-EXO70H2 (A. thaliana, UniProt O80625 1-637)
T4 sequence: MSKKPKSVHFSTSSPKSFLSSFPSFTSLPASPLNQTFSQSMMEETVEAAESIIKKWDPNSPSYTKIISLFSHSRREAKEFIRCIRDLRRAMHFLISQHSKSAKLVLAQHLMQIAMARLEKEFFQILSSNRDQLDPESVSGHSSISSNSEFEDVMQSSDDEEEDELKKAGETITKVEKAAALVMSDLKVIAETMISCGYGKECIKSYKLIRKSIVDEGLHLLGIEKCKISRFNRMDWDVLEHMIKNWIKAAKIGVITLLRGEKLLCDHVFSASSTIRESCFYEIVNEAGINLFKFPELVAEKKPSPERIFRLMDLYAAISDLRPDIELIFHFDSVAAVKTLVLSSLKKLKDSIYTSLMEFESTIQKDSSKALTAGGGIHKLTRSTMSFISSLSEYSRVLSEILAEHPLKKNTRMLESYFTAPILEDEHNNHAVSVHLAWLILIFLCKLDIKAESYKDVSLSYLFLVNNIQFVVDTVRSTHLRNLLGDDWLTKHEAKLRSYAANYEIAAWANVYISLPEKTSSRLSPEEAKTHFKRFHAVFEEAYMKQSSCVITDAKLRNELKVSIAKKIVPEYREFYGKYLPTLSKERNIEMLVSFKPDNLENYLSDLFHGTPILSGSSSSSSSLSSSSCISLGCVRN

B1: MLO2-NLuc (natural protein)
chain: MADQVKERTLEETSTWAVAVVCFVLLFISIVLEHSIHKIGTWFKKKHKQALFEALEKVKAELMLLGFISLLLTIGQTPISNICISQKVASTMHPCSAAEEAKKYGKKDAGKKDDGDGDKPGRRLLLELAESYIHRRSLATKGYDKCAEKGKVAFVSAYGIHQLHIFIFVLAVVHVVYCIVTYAFGKIKMRTWKSWEEETKTIEYQYSNDPERFRFARDTSFGRRHLNFWSKTRVTLWIVCFFRQFFGSVTKVDYLALRHGFIMAHFAPGNESRFDFRKYIQRSLEKDFKTVVEISPVIWFVAVLFLLTNSYGLRSYLWLPFIPLVVILIVGTKLEVIITKLGLRIQEKGDVVRGAPVVQPGDDLFWFGKPRFILFLIHLVLFTNAFQLAFFAWSTYEFNLNNCFHESTADVVIRLVVGAVVQILCSYVTLPLYALVTQMGSKMKPTVFNDRVATALKKWHHTAKNETKHGRHSGSNTPFSSRPTTPTHGSSPIHLLHNFNNRSVENYPSSPSPRYSGHGHHEHQFWDPESQHQEAETSTHHSLAHESSEPVLASVELPPIRTSKSLRDFSFKK
B2: MLO6-NLuc (natural protein)
chain: MADQVKEKTLEETSTWAVAVVCFVLLLISIVIEKLIHKIGSWFKKKNKKALYEALEKVKAELMLMGFISLLLTIGQGYISNICIPKNIAASMHPCSASEEARKYGKKDVPKEDEEENLRRKLLQLVDSLIPRRSLATKGYDKCAEKGKVAFVSAYGMHQLHIFIFVLAVCHVIYCIVTYALGKTKMRRWKKWEEETKTIEYQYSHDPERFRFARDTSFGRRHLSFWSKSTITLWIVCFFRQFFRSVTKVDYLTLRHGFIMAHLAPGSDARFDFRKYIQRSLEEDFKTIVEINPVIWFIAVLFLLTNTNGLNSYLWLPFIPFIVILIVGTKLQVIITKLGLRIQEKGDVVKGTPLVQPGDHFFWFGRPRFILFLIHLVLFTNAFQLAFFVWSTYEFGLKNCFHESRVDVIIRISIGLLVQILCSYVTLPLYALVTQMGSKMKPTVFNERVATALKSWHHTAKKNIKHGRTSESTTPFSSRPTTPTHGSSPIHLLRNAPHKRSRSVDESFANSFSPRNSDFDSWDPESQHETAETSNSNHRSRFGEEESEKKFVSSSVELPPGPGQIRTQHEISTISLRDFSFKR
B3: MLO12-NLuc (natural protein)
chain: MAIKERSLEETPTWAVAVVCFVLLFISIMIEYFLHFIGHWFKKKHKKALSEALEKVKAELMLLGFISLLLVVLQTPVSEICIPRNIAATWHPCSNHQEIAKYGKDYIDDGRKILEDFDSNDFYSPRRNLATKGYDKCAEKGKVALVSAYGIHQLHIFIFVLAVFHVLYCIITYALGKTKMKKWKSWERETKTIEYQYANDPERFRFARDTSFGRRHLNIWSKSTFTLWITCFFRQFFGSVTKVDYLTLRHGFIMAHLPAGSAARFDFQKYIERSLEQDFTVVVGISPLIWCIAVLFILTNTHGWDSYLWLPFLPLIVILIVGAKLQMIISKLGLRIQEKGDVVKGAPVVEPGDDLFWFGRPRFILFLIHLVLFTNAFQLAFFVWSTYEFTLKNCFHHKTEDIAIRITMGVLIQVLCSYITLPLYALVTQMGTSMRPTIFNDRVANALKKWHHTAKKQTKHGHSGSNTPHSSRPTTPTHGMSPVHLLHNYNNRSLDQQTSFTASPSPPRFSDYSGQGHGHQHFFDPESQNHSYQREITDSEFSNSHHPQVDMASPVREEKEIVEHVKVDLSEFTFKK

Tests used:
Experiment in all cases: split reporter
CLuc-EXO70H1 [1] = target: T1, CLuc-EXO70H1
CLuc-EXO70H4 [2] = target: T2, CLuc-EXO70H4
CLuc-EXO70B2 = target: T3, CLuc-EXO70B2
[3] = target: CLuc-EXO70H7 (A. thaliana); conditions: scale: relative to the calmodulin positive control
CLuc-EXO70H1 [4] = target: T1, CLuc-EXO70H1; remark: listed apart in the source
CLuc-EXO70H2 = target: T4, CLuc-EXO70H2
CLuc-EXO70H4 [5] = target: T2, CLuc-EXO70H4; remark: listed apart in the source

Binder	relative luminescence (CLuc-EXO70H1 [1])	relative luminescence (CLuc-EXO70H4 [2])	relative luminescence (CLuc-EXO70B2)	relative luminescence [3]	relative luminescence (CLuc-EXO70H1 [4])	relative luminescence (CLuc-EXO70H2)	relative luminescence (CLuc-EXO70H4 [5])
B1	~0.39 relative to the calmodulin positive control	~0.4 relative to the calmodulin positive control	~0.56 relative to the calmodulin positive control	–	–	–	–
B2	–	~0.67 relative to the calmodulin positive control	–	> 0.24	> 0.24 relative to the calmodulin positive control	> 0.24 relative to the calmodulin positive control	> 0.24 relative to the calmodulin positive control
B3	~0.37 relative to the calmodulin positive control	–	–	–	–	–	–
